These results are taken from doi:10.1101/805184 (bioRxiv, 2019).

Assay in all cases: cryo-EM structure
Data set [1] has as its target Snf2 (S. cerevisiae, UniProt P22082 1-1703).
Data set [2] addresses T1, Swi1 (S. cerevisiae, UniProt P09547 1-1314).
T1 sequence: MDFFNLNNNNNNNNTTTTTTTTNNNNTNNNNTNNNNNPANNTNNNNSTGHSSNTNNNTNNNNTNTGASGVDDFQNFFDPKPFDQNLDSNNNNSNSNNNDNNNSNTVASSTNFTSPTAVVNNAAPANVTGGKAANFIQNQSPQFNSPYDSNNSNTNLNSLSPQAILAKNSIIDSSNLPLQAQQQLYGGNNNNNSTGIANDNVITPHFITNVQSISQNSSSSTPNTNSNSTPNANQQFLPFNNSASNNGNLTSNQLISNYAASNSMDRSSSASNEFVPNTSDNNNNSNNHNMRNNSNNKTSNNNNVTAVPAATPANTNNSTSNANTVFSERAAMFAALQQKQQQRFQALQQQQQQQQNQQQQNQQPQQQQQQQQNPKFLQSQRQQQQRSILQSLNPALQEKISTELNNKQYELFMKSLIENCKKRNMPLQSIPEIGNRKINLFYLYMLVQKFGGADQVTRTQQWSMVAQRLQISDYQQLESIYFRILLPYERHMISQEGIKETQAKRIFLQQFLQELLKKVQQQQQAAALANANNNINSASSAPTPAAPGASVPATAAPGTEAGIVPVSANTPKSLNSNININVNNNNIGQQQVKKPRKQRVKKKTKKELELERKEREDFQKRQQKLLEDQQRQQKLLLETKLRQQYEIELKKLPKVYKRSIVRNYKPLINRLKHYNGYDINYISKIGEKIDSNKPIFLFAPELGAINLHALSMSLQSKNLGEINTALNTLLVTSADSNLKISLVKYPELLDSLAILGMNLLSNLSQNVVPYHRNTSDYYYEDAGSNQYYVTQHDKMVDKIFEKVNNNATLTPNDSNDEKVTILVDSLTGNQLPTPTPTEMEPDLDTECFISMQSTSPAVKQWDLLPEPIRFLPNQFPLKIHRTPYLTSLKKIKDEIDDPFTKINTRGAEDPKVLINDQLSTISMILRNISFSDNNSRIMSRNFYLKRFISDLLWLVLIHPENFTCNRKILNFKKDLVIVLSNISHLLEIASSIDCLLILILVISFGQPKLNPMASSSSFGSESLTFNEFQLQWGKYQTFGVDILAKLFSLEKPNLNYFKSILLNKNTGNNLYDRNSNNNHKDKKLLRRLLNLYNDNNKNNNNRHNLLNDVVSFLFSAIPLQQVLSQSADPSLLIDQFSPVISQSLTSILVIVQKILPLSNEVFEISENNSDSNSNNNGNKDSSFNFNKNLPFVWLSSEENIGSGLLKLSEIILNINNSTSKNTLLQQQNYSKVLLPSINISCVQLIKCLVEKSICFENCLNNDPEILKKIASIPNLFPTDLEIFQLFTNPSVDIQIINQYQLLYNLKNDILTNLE

In data set [3] the target is Snf5 (S. cerevisiae, UniProt P18480 1-905).
Data set [4] concerns the molecule itself.

Snf2, sequence (P22082 whole entry): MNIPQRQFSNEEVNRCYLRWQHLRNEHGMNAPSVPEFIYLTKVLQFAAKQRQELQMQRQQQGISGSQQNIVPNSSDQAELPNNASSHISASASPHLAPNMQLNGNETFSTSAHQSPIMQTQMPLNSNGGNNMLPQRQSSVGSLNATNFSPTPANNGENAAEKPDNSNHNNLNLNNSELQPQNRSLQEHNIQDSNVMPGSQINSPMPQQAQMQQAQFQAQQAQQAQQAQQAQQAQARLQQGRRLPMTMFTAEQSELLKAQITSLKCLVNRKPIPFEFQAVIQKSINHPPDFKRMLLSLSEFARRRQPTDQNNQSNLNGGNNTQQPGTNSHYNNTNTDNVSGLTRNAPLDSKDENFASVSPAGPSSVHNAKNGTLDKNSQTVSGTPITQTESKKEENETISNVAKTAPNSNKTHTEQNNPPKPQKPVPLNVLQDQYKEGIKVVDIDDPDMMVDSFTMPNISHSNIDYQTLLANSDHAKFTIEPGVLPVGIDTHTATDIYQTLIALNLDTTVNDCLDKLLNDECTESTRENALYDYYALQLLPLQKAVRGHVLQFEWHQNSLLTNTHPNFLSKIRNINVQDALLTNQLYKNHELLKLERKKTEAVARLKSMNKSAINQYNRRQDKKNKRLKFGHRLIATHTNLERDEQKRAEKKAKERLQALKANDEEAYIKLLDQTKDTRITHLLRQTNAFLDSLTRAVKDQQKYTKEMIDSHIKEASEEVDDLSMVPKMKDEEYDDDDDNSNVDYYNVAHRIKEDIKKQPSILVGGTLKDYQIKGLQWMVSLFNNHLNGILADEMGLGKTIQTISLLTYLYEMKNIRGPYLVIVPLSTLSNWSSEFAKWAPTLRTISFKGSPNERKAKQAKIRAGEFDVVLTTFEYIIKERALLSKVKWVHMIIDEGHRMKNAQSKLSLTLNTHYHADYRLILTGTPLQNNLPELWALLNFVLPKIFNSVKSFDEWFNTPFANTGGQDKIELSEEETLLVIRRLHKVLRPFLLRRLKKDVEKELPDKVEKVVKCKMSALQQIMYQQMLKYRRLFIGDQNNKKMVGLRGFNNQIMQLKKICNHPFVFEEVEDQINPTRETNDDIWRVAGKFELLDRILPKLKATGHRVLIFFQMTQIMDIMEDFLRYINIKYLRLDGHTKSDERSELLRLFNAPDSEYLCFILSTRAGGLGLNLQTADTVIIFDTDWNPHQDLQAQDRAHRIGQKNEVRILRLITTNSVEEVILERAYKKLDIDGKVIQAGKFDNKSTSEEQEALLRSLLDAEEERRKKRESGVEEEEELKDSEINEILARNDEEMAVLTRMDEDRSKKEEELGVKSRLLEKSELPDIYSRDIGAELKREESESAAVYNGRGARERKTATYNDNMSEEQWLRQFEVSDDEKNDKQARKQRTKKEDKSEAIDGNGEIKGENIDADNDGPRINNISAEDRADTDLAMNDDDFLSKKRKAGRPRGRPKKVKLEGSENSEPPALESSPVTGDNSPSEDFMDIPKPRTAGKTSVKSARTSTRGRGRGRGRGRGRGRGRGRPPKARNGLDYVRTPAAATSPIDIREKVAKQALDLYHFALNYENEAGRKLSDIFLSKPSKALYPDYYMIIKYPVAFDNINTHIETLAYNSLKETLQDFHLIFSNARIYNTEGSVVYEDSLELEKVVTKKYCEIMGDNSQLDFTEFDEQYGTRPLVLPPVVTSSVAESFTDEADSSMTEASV

B1: Swi3 (natural protein)
chain: MENTLGEGSTVNASVDVDQHGNDNNSDSNANAAVAGVANTDTAGEESQQQDESLKDEATVPNTRDAESEAITVTAKQQPTMQANKLDSQETPSTEESRAQNVFGQDNEDSDNLFGETESSVSNNEANTPSIPTNPVDNENNKPAIKEDSTIQDSNGDVKNMEDVKIQKEEEPENNTVIEGVKEESQPDENTKEMDEVEEDDEDDDQPMISPDNSIFGDTKSESKQLGNTSSVANTPSEIPDAHKAEQEDIIEKTESVDKKVDSGEERNEQEREIMNDHSKSANPKKTTITRVEPETFEIPQAHEIVIPSYSKWFNLEKIHSIEVQSLPEFFTNRIPSKTPEVYMRYRNFMVNSYRLNPNEYFSVTTARRNVSGDAAALFRLHKFLTKWGLINYQVDSKLLPKNIEPPLTSQYSTRHDAPRGLFPFESYKPSVQLPDMAKLKKMMNTSDSESTLYKYLKESKRKYDEITHPPSTTDDENGDKNDNGGKMNNEVSTSTSMTGDANLLEEGETSRPLKKVKILEQIDENWSKEDLQKLLKGIQEFGADWYKVAKNVGNKSPEQCILRFLQLPIEDKFLYGDGNGKGDNDNGLGPLKYAPHLPFSKSENPVLSTIAFLVGLVNPKTVQSMTQRAIQSAESIKSQKEEISDQKPIEHIKEGSEIAISSLGYRSHIFATNEERQMNFLTNELIRLQMEKLDAKLNHLKKLEKFMELERKTLERQQENLLIQRLNFNQNSSKIVNVLSKCLNLISDSNINNSSVAEKEEIRSQIDHFKSMLSKPETLSIGKNPFNKPNIETGENHNGQSISNENDVKPISIEAPQFYRYWSA
In the case of B1, the binding result in data set [1], in data set [2] and in data set [3] was “binds” each time. For the same molecule, the “stoichiometry N” value in data set [4] turned out to be 2.

By stoichiometry N is commonly meant the number of molecules, sites or subunits per partner or assembly.
